Assay [1] addresses T1, human C1s mutant M4 (P280A & E282K) (human, UniProt P09871 16-688).
T1 construct: The entry is the mutant itself
T1 sequence: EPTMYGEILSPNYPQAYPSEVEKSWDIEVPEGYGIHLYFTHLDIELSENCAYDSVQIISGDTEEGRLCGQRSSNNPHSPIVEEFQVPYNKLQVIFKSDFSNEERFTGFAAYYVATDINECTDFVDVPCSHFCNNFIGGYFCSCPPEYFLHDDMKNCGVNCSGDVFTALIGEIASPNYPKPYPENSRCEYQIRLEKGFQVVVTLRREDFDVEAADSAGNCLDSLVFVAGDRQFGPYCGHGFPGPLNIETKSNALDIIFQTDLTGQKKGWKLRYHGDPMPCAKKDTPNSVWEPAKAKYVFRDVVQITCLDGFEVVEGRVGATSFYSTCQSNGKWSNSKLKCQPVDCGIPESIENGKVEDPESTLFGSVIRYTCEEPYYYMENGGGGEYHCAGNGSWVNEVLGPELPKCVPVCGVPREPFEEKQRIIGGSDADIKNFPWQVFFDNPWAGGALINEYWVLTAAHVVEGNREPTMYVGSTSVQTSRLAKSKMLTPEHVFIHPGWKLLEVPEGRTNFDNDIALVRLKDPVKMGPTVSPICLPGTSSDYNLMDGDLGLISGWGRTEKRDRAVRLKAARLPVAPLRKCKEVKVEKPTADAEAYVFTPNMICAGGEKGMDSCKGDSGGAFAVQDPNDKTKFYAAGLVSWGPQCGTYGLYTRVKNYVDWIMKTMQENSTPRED
As to the kind of experiment: ELISA, plate coated with human C1s mutant M4: P280A, E282K, OD450nm. As for the experimental part:
(§1) ELISA was carried out by first coating 96-well plates with 200 ng/well of full-length or truncated C1s proteins overnight. The next morning, plates were blocked with SuperBlock T20 blocking buffer (Thermo Scientific 37536) for 1 h with gentle shaking. Then, various concentrations of anti-C1s antibodies diluted in SuperBlock T20 blocking buffer were added to the plates and incubated for 1 h with gentle shaking. Mouse IgG (Sigma-Aldrich 15381) and human IgG1 (BioXCell BP0297) were used as negative controls. The plates were washed before incubating with HRP conjugated secondary antibodies diluted in SuperBlock T20 blocking buffer (goat anti-mouse IgG (H+L) cross-adsorbed secondary antibody HRP (Invitrogen G-21040) or goat anti-human IgG antibody, HRP conjugate (Millipore AP309P)) for 1 h with gentle shaking. At last, the plates were washed and color developed with ELISA liquid HRP substrate (Sigma-Aldrich), followed by stopping the reaction with addition of 1M H₂SO₄ in the same volume as the ELISA liquid substrate. Bound antibody was measured by absorbance at OD₄₅₀ₙₘ.
(§2) Binding of anti-C1s antibodies to mutants M1-M20 of human C1s was measured by ELISA as described in Example 4, and results are shown in FIGS. 6B-6U. All anti-C1s humanized variants including hz2-7(H1L2), hz2-8(H1L2 G80A) and hz2-8(H1L2 G80A/T82A) maintained strong binding properties to the majority (16 out of 20) of C1s mutants including M1 (FIG. 6B), M2 (FIG. 6C), M3 (FIG. 6D). M4 (FIG. 6E), M7 (FIG. 6H), M8 (FIG. 6I), M10 (FIG. 6K), M11 (FIG. 6L), M12 (FIG. 6M), M13 (FIG. 6N), M15 (FIG. 6P), M16 (FIG. 6Q), M17 (FIG. 6R), M18 (FIG. 6S), M19 (FIG. 6T) and M20 (FIG. 6U).

In assay [2] the target is T2, human C1s mutant M19 (Q303K) (human, UniProt P09871 16-688).
T2 construct: The entry is the mutant itself
T2 sequence: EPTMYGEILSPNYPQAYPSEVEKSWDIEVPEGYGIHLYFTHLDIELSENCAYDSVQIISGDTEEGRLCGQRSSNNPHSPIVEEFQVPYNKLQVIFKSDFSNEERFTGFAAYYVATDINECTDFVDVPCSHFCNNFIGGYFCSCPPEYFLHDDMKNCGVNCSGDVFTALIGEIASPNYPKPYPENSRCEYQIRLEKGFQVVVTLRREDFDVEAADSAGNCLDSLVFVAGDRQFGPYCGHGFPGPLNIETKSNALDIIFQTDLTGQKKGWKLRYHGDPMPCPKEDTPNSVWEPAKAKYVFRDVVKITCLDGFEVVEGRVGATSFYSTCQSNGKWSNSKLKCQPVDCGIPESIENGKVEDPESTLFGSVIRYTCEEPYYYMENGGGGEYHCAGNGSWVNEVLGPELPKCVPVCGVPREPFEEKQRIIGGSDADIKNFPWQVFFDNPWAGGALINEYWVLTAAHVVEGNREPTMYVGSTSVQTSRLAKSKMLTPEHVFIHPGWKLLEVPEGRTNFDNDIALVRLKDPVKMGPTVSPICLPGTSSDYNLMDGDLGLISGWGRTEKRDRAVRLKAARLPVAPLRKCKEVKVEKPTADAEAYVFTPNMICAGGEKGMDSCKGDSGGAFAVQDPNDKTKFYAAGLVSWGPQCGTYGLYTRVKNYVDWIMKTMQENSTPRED
The experiment in a line: ELISA, plate coated with human C1s mutant M19: Q303K, OD450nm. As for the experimental part:
as §1, §2

In assay [3] the target is T3, human C1s mutant M11 (S349P) (human, UniProt P09871 16-688).
T3 construct: The entry is the mutant itself
T3 sequence: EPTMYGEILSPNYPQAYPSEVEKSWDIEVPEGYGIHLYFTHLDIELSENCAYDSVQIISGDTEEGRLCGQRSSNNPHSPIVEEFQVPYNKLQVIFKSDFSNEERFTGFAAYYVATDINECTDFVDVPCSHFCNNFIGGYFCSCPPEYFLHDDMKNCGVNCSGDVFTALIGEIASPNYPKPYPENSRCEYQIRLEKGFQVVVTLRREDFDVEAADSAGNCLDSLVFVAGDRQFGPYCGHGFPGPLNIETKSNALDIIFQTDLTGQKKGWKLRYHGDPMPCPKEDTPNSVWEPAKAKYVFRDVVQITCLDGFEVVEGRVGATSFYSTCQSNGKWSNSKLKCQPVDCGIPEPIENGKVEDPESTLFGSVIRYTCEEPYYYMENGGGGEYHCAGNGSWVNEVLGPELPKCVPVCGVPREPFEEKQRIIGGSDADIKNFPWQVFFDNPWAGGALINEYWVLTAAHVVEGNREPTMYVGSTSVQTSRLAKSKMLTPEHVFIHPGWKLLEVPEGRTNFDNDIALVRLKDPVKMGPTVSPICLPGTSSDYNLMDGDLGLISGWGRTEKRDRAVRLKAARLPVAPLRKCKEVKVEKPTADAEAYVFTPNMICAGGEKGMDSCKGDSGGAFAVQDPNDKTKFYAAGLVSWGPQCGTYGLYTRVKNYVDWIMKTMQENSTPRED
The experiment in a line: ELISA, plate coated with human C1s mutant M11: S349P, OD450nm. As for the experimental part:
as §1, §2
In general terms: ELISA stands for enzyme-linked immunosorbent assay.

B1: Anti-C1s antibody hz2-8 (H1L2 G80A) (antibody, V domains shown)
VH: QVQLVQSGAEVKKPGASVKVSCKASGFNIKEYYMHWVRQAPEQGLEWMGWIDPENADTIYAQKFQGRVTITADTSTNTAYMELSSLRSEDTAVYYCARSRLFFAYWGQGTLVTVSS
VL: DIQMTQSPKSLSASVGDRVTITCRASQDVRTALDWYQQKPGQSPKLLIYSASYRYSGVPSRFSGSGSGTDFTLTISSLQPEDFATYYCQQQYTTPYTFGQGTKLEIKR
notes: Humanized variant with G80A in HC CDR2 (already in the entry), human IgG1 / kappa
As to B1, the EC50 – broadly, the concentration giving half of the maximal effect – in assay [1] turned out to be 10 ng/mL; in assay [2] it was 1 ng/mL; in assay [3], 4 ng/mL.

B2: Anti-C1s antibody hz2-8 (H1L2 G80A/T82A) (antibody, V domains shown)
VH: QVQLVQSGAEVKKPGASVKVSCKASGFNIKEYYMHWVRQAPEQGLEWMGWIDPENADAIYAQKFQGRVTITADTSTNTAYMELSSLRSEDTAVYYCARSRLFFAYWGQGTLVTVSS
VL: DIQMTQSPKSLSASVGDRVTITCRASQDVRTALDWYQQKPGQSPKLLIYSASYRYSGVPSRFSGSGSGTDFTLTISSLQPEDFATYYCQQQYTTPYTFGQGTKLEIKR
notes: Humanized variant with G80A and T82A in HC CDR2 (already in the entry), human IgG1 / kappa
B2: the EC50 in assay [1] was found to be 10 ng/mL; in assay [2] it was 1 ng/mL; in assay [3], 5 ng/mL.

B3: Anti-C1s antibody hz2-7(H1L2) (antibody, V domains shown)
VH: EVQLLESGGGLVQPGGSLRLSCAASGFTFSNYFMNWVRQAPGKGLEWVSEIRLKFTNYATHYADSVKGRFTISRDDSKSTLYLQMNSLRAEDTAVYYCTRDYGSRNGYFDYWGQGTLVTVSS
VL: DIVMTQTPLSLPVTPGEPASISCRSSKSLLHSNGNTFLYWFLQKPGQSPQLLIYRMSNLASGVPDRFSGSGSGTDFTLKISRVEAEDVGVYYCMQHLEYPYTFGGGTKLEIKR
notes: Humanized, human IgG1 / kappa; also called hz2-7(1L2)
Regarding B3, the EC50 was determined as 13 ng/mL in assay [1], 2 ng/mL in assay [2] and 5 ng/mL in assay [3].

Source of the values: patent publication US20230051715A1 (MABWELL THERAPEUTICS, published 2023).
